Laboratory results published in paper PMC6658616, “Novel Peptide Conjugates of Modified Oligonucleotides for Inhibition of Bacterial RNase P” (Frontiers in Pharmacology, 2019).

Columns and labels:
A. baumannii = assay: Conjugate penetration into bacterial cells, flow cytometry; assay type: cell-based, Acinetobacter baumannii; conditions: 1 µM conjugate in LB medium, 1 h at 37°C, 3'-fluorescein label, mean ± SD from four independent experiments
E. coli = assay: as above; assay type: cell-based, Escherichia coli; conditions: 1 µM conjugate in LB medium, 1 h at 37°C, 3'-fluorescein label, mean ± SD from four independent experiments

Row | Substance | Level of penetration, %, A. baumannii (A. baumannii) | Level of penetration, %, E.coli (E. coli) | Level of penetration, %, A. baumannii (A. baumannii; listed as 5’-Pept2 -pgd-inh3- Flu) [%]
1 | 5’-Pept1-d(CAAGCAGCxCxTxAxCxCxC)–Flu-3’ [5'-Pept1-pgd-inh3-Flu, 5’-Pept1 conjugate of pgd-inh3 with 3’-fluorescein] | 1,8±0,2% | 4,1±0,1% | –
2 | 5’-Pept2-d(CAAGCAGCxCxTxAxCxCxC)–Flu-3’ [5'-Pept2-pgd-inh3-Flu, 5’-Pept2 conjugate of pgd-inh3 with 3’-fluorescein] | 6,5±0,5% | 5,3±0,3% | 6.5
3 | 5’-Pept3-d(CAAGCAGCxCxTxAxCxCxC)–Flu-3’ [5'-Pept3-pgd-inh3-Flu, 5’-Pept3 conjugate of pgd-inh3 with 3’-fluorescein] | 1,7±0,3% | 7,0±1% | –
4 | 5’-Pept4-d(CAAGCAGCxCxTxAxCxCxC)–Flu-3’ [5'-Pept4-pgd-inh3-Flu, 5’-Pept4 conjugate of pgd-inh3 with 3’-fluorescein] | 2,0±0,3% | 6,4±0,2% | –
